B1: FIXa-K247N/N249S/R318Y/R338E/R403E/E410N (protein)
chain 1: not shown
chain 2: not shown
B2: FIXa-D85N/K228N/R318Y/R338E/R403E/E410N (protein)
chain 1: not shown
chain 2: not shown
B3: FIXa-D104N/K106S/K247N/N249S/R318Y/R338E/R403E/E410N (protein)
chain 1: not shown
chain 2: not shown
B4: FIXa-K228N/R318Y/R338E/R403E/E410N (protein)
chain 1: not shown
chain 2: not shown
B5: FIXa-I251S/R318Y/R338E/R403E/E410N (protein)
chain 1: not shown
chain 2: not shown
B6: FIXa-D104N/K106S/I251S/R318Y/R338E/R403E/E410N (protein)
chain 1: not shown
chain 2: not shown
B7: FIXa-D104N/K106S/I251S/R318Y/R338E/E410N (protein)
chain 1: not shown
chain 2: not shown
B8: FIXa-K247N/N249S/R318Y/R338E/E410N (protein)
chain 1: not shown
chain 2: not shown
B9: FIXa-Y155F/I251S/R318Y/R338E/R403E/E410N (protein)
chain 1: not shown
chain 2: not shown

target: Factor X (FX), P00742
Sequence (P00742 whole entry, looked up): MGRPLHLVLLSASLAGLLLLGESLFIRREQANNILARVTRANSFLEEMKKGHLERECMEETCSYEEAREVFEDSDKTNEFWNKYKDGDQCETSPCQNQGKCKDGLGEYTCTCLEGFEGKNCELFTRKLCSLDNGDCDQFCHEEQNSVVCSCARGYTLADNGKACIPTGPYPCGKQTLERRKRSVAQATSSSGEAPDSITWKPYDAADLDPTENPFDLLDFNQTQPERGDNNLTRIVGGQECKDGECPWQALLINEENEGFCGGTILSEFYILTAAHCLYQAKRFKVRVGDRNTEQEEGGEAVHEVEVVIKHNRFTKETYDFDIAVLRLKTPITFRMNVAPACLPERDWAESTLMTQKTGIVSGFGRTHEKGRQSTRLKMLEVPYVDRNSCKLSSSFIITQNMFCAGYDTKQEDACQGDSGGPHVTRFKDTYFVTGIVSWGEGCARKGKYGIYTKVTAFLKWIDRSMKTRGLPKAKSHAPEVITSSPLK

Going from B1 to B2, the “% of WT kcat/KM (against Catalyst Biosciences WT FIXa)” value (from here on “% of WT kcat/KM”) rises from 331% to 336%.

Compared with B3, B4 is higher in “% of WT kcat/KM” value: 192% for the first, 339% for the second.

First: B5
Second: B6
The “% of WT kcat/KM” value of the first is higher: 334% for the first, 263% for the second.

Going from B7 to B8, the “% of WT kcat/KM” value rises from 291% to 501%.

B9 was tested, and the “% of WT kcat/KM” value was 363%.

B1 and B2 are within 1.5-fold of each other in kcat/KM for activation of FX by FIXa in the Xase complex (FVIIIa, PC/PS vesicles, Ca2+), fluorogenic Spectrafluor FXa read-out: 1.5e+08 M⁻¹ s⁻¹ for the first, 1.6e+08 M⁻¹ s⁻¹ for the second.

Compared with B3, B4 is 1.8-fold higher in kcat/KM for activation of FX by FIXa in the Xase complex (FVIIIa, PC/PS vesicles, Ca2+), fluorogenic Spectrafluor FXa read-out: 8.8e+07 M⁻¹ s⁻¹ for the first, 1.6e+08 M⁻¹ s⁻¹ for the second.

B5 and B6 are within 1.5-fold of each other in kcat/KM for activation of FX by FIXa in the Xase complex (FVIIIa, PC/PS vesicles, Ca2+), fluorogenic Spectrafluor FXa read-out: 1.5e+08 M⁻¹ s⁻¹ for the first, 1.2e+08 M⁻¹ s⁻¹ for the second.

First: B7
Second: B8
The kcat/KM for activation of FX by FIXa in the Xase complex (FVIIIa, PC/PS vesicles, Ca2+), fluorogenic Spectrafluor FXa read-out of the first is 1.8-fold lower: 1.3e+08 M⁻¹ s⁻¹ for the first, 2.3e+08 M⁻¹ s⁻¹ for the second.

B9 gave a kcat/KM for activation of FX by FIXa in the Xase complex (FVIIIa, PC/PS vesicles, Ca2+), fluorogenic Spectrafluor FXa read-out of 1.7e+08 M⁻¹ s⁻¹.
